B1: Twister Ribozyme (parent)
chain: AACACUGCCAAUGCCGGUCCCAAGCCCGGAUAAAAGUGGAGGGGGCGG

Variants of: B1
Assay: self-cleavage, relative activity (ratio to wild type); higher = more cleavage; co-transcriptional

Variant | self-cleavage
AACACUGCCAAUGCCGGUCCCACGCCCGGAUAAAAGUGGAGAGGGCGG | 0.113
AACACUGCCAAUGCCGGUCCCACGCCCGGAUAAAAGUGGAGCGGGCGG | 0.156
AACACUGCCAAUGCCGGUCCCACGCCCGGAUAAAAGUGGAGUGGGCGG | 0.0925
AACACUGCCAAUGCCGGUCCCAGGCCCGCAUAAAAGUGGAGGGGGCGG | 0.1
AACACUGCCAAUGCCGGUCCCACGCCCGGAUAAAACUGGAGGGGGCGG | 0.102
AACACUGCCAAUGCCGGUCCCAGGCCCGGAUAAAAGUGGCGGGGGCGG | 0.0453
AACACUGCCAAUGCCGGUCCCAGGCCCGGAUAAAAGUGGUGGGGGCGG | 0.125
AACACUGCCAAUGCCGGUCCCAGGCCCGGAUAAAAGUGGGGGGGGCGG | 0.123
AACACUGCCAAUGCCGGUCCCAGGCCCGGAUAAAAGUGGAGGGGGCGG | 0.634
AACACUGCCAAUGCCGGUCCCAUGCCCGGAUAAAAGUGGAGGGGGCGG | 0.697
AACACUGCCAAUGCCGGUCCCACGCCCGGAUAAAAGUGGAGGGGGUGG | 0.486
AACACUGCCAAUGCCGGUCCCACGCCCGGAUAAAAGUGGAGGGGGGGG | 0.155
AACACUGCCAAUGCCGGUCCCAUGCCCGGAUACAAGUGGAGGGGGCGG | 0.186
AACACUGCCAAUGCCGGUCCCAUGCCCGGAUAGAAGUGGAGGGGGCGG | 0.18
AACACUGCCAAUGCCGGUCCCACGCCCGGAUAAAAGUGGAGGCGGCGG | 0.123
AACACUGCCAAUGCCGGUCCCACGCCCGGAUAAAAGUGGAGGUGGCGG | 0.109
AACACUGCCAAUGCCGGUCCCAUGCCCGGAUAAAAAUGGAGGGGGCGG | 0.132
AACACUGCCAAUGCCGGUCCCAUGCCCGGAUAAAAUUGGAGGGGGCGG | 0.0806
AACACUGCCAAUGCCGGUCCCACGCCCGGAUAAAAGUGGAGGGGUCGG | 0.156
AACACUGCCAAUGCCGGUCCCACGCCCGGAUAAAAGUGGAGGGGACGG | 0.118
AACACUGCCAAUGCCGGUCCCACGCCCGGAUAAAAGUGGAGGGGGCCG | 0.13
AACACUGCCAAUGCCGGUCCCAUGCGCGGAUAAAAGUGGAGGGGGCGG | 0.101

Variant | self-cleavage
AACACUGCCAAUGCCGGUCCCAGGCCCGGAUAAAAGUCGAGGGGGCGG | 0.289
AACACUGCCAAUGCCGGUCCCAUGCCCGGAUAAAAGUGAAGGGGGCGG | 0.061
AACACUGCCAAUGCCGGUCCCAUGCCCGGAUAAAAGUGCAGGGGGCGG | 0.0667
AACACUGCCAAUGCCGGUCCCAGGCCCGGAUAAAAGUGGAGGGGGAGG | 0.328
AACACUGCCAAUGCCGGUCCCACGCCCGGAUAAAAGUGGAGGGGGCGA | 0.14
AACACUGCCAAUGCCGGUCCCACGCCCGGAUAAAAGUGGAGGGGGCGU | 0.181
AACACUGCCAAUGCCGGUCCCAGCCCCGGAUAAAAGUGGAGGGGGCGG | 0.0875
AACACUGCCAAUGCCGGUCCCAGUCCCGGAUAAAAGUGGAGGGGGCGG | 0.063
AACACUGCCAAUGCCGGUCCCAGACCCGGAUAAAAGUGGAGGGGGCGG | 0.12
AACACUGCCAAUGCCGGUCCCAGGCCGGGAUAAAAGUGGAGGGGGCGG | 0.0997
AACACUGCCAAUGCCGGUCCCAGGCCCGGAUAAAAGUGGAAGGGGCGG | 0.15
AACACUGCCAAUGCCGGUCCCAGGCCCGGAUAAAAGUGGAUGGGGCGG | 0.0995
AACACUGCCAAUGCCGGUCCCAGGACCGGAUAAAAGUGGAGGGGGCGG | 0.0465
AACACUGCCAAUGCCGGUCCCAGGUCCGGAUAAAAGUGGAGGGGGCGG | 0.132
AACACUGCCAAUGCCGGUCCCAUCCCCGGAUAAAAGUGGAGGGGGCGG | 0.109
AACACUGCCAAUGCCGGUCCCAUACCCGGAUAAAAGUGGAGGGGGCGG | 0.0917
AACACUGCCAAUGCCGGUCCCAGGCCCGGAUAAAAUUGGAGGGGGCGG | 0.0865
AACACUGCCAAUGCCGGUCCCAGGCCCGGAUAAAAAUGGAGGGGGCGG | 0.126
AACACUGCCAAUGCCGGUCCCAUGCCCGGAUGAAAGUGGAGGGGGCGG | 0.45
AACACUGCCAAUGCCGGUCCCAGGCCCGGAUAGAAGUGGAGGGGGCGG | 0.281
AACACUGCCAAUGCCGGUCCCAGGCCCGGAUAUAAGUGGAGGGGGCGG | 0.393
AACACUGCCAAUGCCGGUCCCAGGCCCGGAUACAAGUGGAGGGGGCGG | 0.187

Variant | self-cleavage
AACACUGCCAAUGCCGGUCCCACGCCUGGAUAAAAGUGGAGGGGGCGG | 0.0937
AACACUGCCAAUGCCGGUCCCACGCCCGGAUAAAAGUGAAGGGGGCGG | 0.127
AACACUGCCAAUGCCGGUCCCACGCCCGGAUAAAAGUGCAGGGGGCGG | 0.103
AACACUGCCAAUGCCGGUCCCACGCCCCGAUAAAAGUGGAGGGGGCGG | 0.0761
AACACUGCCAAUGCCGGUCCCACGCCCAGAUAAAAGUGGAGGGGGCGG | 0.225
AACACUGCCAAUGCCGGUCCCAGGCCCGGAUAAAAGUGGAGGCGGCGG | 0.125
AACACUGCCAAUGCCGGUCCCACGCCCGAAUAAAAGUGGAGGGGGCGG | 0.196
AACACUGCCAAUGCCGGUCCCAGGCCCGGAUAAAAGUGGAGAGGGCGG | 0.128
AACACUGCCAAUGCCGGUCCCAGGCCCGGAUAAAAGUGGAGUGGGCGG | 0.121
AACACUGCCAAUGCCGGUCCCAUGCCCGGCUAAAAGUGGAGGGGGCGG | 0.115
AACACUGCCAAUGCCGGUCCCAGGCCCGGAUAAAAGUGGAGGGGGCCG | 0.209
AACACUGCCAAUGCCGGUCCCAGGCCCGGAUAAAAGUGGAGGGGGCAG | 0.265
AACACUGCCAAUGCCGGUCCCAGGCCCGGAUAAAAGGGGAGGGGGCGG | 0.17
AACACUGCCAAUGCCGGUCCCAGGCCCGGAUAAAAGAGGAGGGGGCGG | 0.111
AACACUGCCAAUGCCGGUCCCACGCCCGGAGAAAAGUGGAGGGGGCGG | 0.274
AACACUGCCAAUGCCGGUCCCACGCCCGGACAAAAGUGGAGGGGGCGG | 0.247
AACACUGCCAAUGCCGGUCCCACGCCCGGAAAAAAGUGGAGGGGGCGG | 0.363
AACACUGCCAAUGCCGGUCCCAUGCCCGGAUAAAAGUUGAGGGGGCGG | 0.236
AACACUGCCAAUGCCGGUCCCAUGCCCGGAUAAAAGUAGAGGGGGCGG | 0.342
AACACUGCCAAUGCCGGUCCCAUGCCCGGAUAAAAGUCGAGGGGGCGG | 0.499
AACACUGCCAAUGCCGGUCCCACGCCCGGAUAAAAGUUGAGGGGGCGG | 0.107
AACACUGCCAAUGCCGGUCCCACGCCCGGAUAAAAGUAGAGGGGGCGG | 0.131

Variant | self-cleavage
AACACUGCCAAUGCCGGUCCCACACCCGGAUAAAAGUGGAGGGGGCGG | 0.107
AACACUGCCAAUGCCGGUCCCACUCCCGGAUAAAAGUGGAGGGGGCGG | 0.0714
AACACUGCCAAUGCCGGUCCCAUGCCCGGAUAAAAGUGGGGGGGGCGG | 0.0874
AACACUGCCAAUGCCGGUCCCAUGCCCGGAUAAAAGUGGUGGGGGCGG | 0.0967
AACACUGCCAAUGCCGGUCCCAGGCCCGGAUAAAAGUGGAGGGAGCGG | 0.604
AACACUGCCAAUGCCGGUCCCAGGCCCGGAUAAAAGUGGAGGGUGCGG | 0.458
AACACUGCCAAUGCCGGUCCCAGGCCCGGCUAAAAGUGGAGGGGGCGG | 0.0761
AACACUGCCAAUGCCGGUCCCAUGCCCGGAUAAUAGUGGAGGGGGCGG | 0.121
AACACUGCCAAUGCCGGUCCCAUGCCCGGAUAAAAGUGGAGCGGGCGG | 0.148
AACACUGCCAAUGCCGGUCCCAUGCCCGGAUAAAAGUGGAGAGGGCGG | 0.125
AACACUGCCAAUGCCGGUCCCAUGCCCGGAUAAAAGUGGAGUGGGCGG | 0.0934
AACACUGCCAAUGCCGGUCCCAGGCACGGAUAAAAGUGGAGGGGGCGG | 0.0747
AACACUGCCAAUGCCGGUCCCAUGCCCGGAUAAAAGUGGAGGGGGGGG | 0.652
AACACUGCCAAUGCCGGUCCCAUGCCCGGAUAAAAGUGGAGGGGGAGG | 0.325
AACACUGCCAAUGCCGGUCCCAUGCCCGGAUAAAAGUGGAGGGGGUGG | 0.731
AACACUGCCAAUGCCGGUCCCAGGCCCGGAUAAACGUGGAGGGGGCGG | 0.499
AACACUGCCAAUGCCGGUCCCAGGCCCGGAUAAAGGUGGAGGGGGCGG | 0.188
AACACUGCCAAUGCCGGUCCCAGGCCCGGAUAAAUGUGGAGGGGGCGG | 0.472
AACACUGCCAAUGCCGGUCCCAUGCCCCGAUAAAAGUGGAGGGGGCGG | 0.249
AACACUGCCAAUGCCGGUCCCAUGCCCUGAUAAAAGUGGAGGGGGCGG | 0.279
AACACUGCCAAUGCCGGUCCCAUGCCCAGAUAAAAGUGGAGGGGGCGG | 0.211
AACACUGCCAAUGCCGGUCCCAGGCCCAGAUAAAAGUGGAGGGGGCGG | 0.284

Variant | self-cleavage
AACACUGCCAAUGCCGGUCCCAUGCCCGGAUAAAAGUGGAGGUGGCGG | 0.112
AACACUGCCAAUGCCGGUCCCAUGCCCGGAUAAAAGUGGAGGAGGCGG | 0.118
AACACUGCCAAUGCCGGUCCCAUGCCUGGAUAAAAGUGGAGGGGGCGG | 0.305
AACACUGCCAAUGCCGGUCCCAGGCCCGGAUAAAAGUGCAGGGGGCGG | 0.102
AACACUGCCAAUGCCGGUCCCAGGCCCGGAUAAAAGUGUAGGGGGCGG | 0.142
AACACUGCCAAUGCCGGUCCCAGGCCCGGACAAAAGUGGAGGGGGCGG | 0.544
AACACUGCCAAUGCCGGUCCCAGGCCCGGAAAAAAGUGGAGGGGGCGG | 0.602
AACACUGCCAAUGCCGGUCCCAGGCCCGGAGAAAAGUGGAGGGGGCGG | 0.746
AACACUGCCAAUGCCGGUCCCAGGCCCGGAUAACAGUGGAGGGGGCGG | 0.0596
AACACUGCCAAUGCCGGUCCCAGGCCCGGAUAAGAGUGGAGGGGGCGG | 0.112
AACACUGCCAAUGCCGGUCCCAUGCCCGGAUAAACGUGGAGGGGGCGG | 0.71
AACACUGCCAAUGCCGGUCCCAUGCCCGGAUAAAGGUGGAGGGGGCGG | 0.17
AACACUGCCAAUGCCGGUCCCAUGCCCGGAUAAAUGUGGAGGGGGCGG | 0.614
AACACUGCCAAUGCCGGUCCCACGCCCGGAUAAAAGUGGAUGGGGCGG | 0.118
AACACUGCCAAUGCCGGUCCCACGCCCGGAUAAAAGUGGAAGGGGCGG | 0.138
AACACUGCCAAUGCCGGUCCCAGGCCCGGAUUAAAGUGGAGGGGGCGG | 0.393
AACACUGCCAAUGCCGGUCCCAUGUCCGGAUAAAAGUGGAGGGGGCGG | 0.116
AACACUGCCAAUGCCGGUCCCAUGACCGGAUAAAAGUGGAGGGGGCGG | 0.0618
AACACUGCCAAUGCCGGUCCCACGCCCGGAUAAAAGCGGAGGGGGCGG | 0.0915
AACACUGCCAAUGCCGGUCCCAGGCCCGGAUAAAAGUGGAGGGGACGG | 0.332

Source: the RNAGym collection of RNA variant scans (doi:10.7554/elife.80360)
